# Data: publication PMC3111433
# Target: Francisella tularensis subsp. holarctica LVS 2-C-methyl-D-erythritol 4-phosphate cytidylyltransferase (Francisella tularensis subsp. holarctica LVS)
# Experiment: SEC
substance,measurement,value
Francisella tularensis subsp. holarctica LVS 2-C-methyl-D-erythritol 4-phosphate cytidylyltransferase (enzyme),stoichiometry N,2
